Laboratory results as given in patent US20260125454A1 (SHANGHAI JUNSHI BIOSCIENCES, published 2026).
Numbering of substitutions follows the chain as printed. Values joined by “and” are separate entries in the source; they are usually repeats but may differ in a detail not shown here. Equal entries are not always repeated. Where two headings read alike, the source gives them in different places. Bridges are numbered along the chain shown (N, C = ends). Where no end group is shown, it is not given here. The star is where a group is joined. Biotin = O=C1N[C@H]2[C@H](CS[C@H]2CCCCC(=O)*)N1

T1: hCGRP(1-37) (human, N-terminal biotin; C-terminal phenylalanine amide (F-NH2); CYS residues at positions 7 and 12 theoretically form 1 intrachain disulfide bond)
T1 construct: also called polypeptide 1-37; full-length hCGRP (1-37) polypeptide
T1 peptide: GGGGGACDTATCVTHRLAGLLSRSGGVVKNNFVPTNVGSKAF

T2: hCGRP(8-19) (human)
T2 construct: also called polypeptide 8-19
T2 peptide: Biotin-GGGGGVTHRLAGLLSRS

T3: hCGRP(8-26) (human, N-terminal biotin)
T3 construct: also called polypeptide 8-26
T3 peptide: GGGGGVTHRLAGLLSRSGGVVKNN

T4: hCGRP(1-19) (human, N-terminal biotin; CYS residues at positions 7 and 12 theoretically form 1 intrachain disulfide bond)
T4 construct: also called polypeptide 1-19
T4 peptide: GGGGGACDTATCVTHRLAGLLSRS

T5: Biotin-huCGRPaSA (human, not fully specified; biotin (position not given))
T5 construct: exact construct ('aSA') not explained; also called Biotin CGRPaSA; full-length (1-37) CGRP
T5 peptide: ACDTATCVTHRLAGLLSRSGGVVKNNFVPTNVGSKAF

T6: Biotin-1-19 polypeptide (human, disulfide 2-7; not fully specified (N-terminus); printed as Biotin-Linker(G5)-ACDTATCVTHRLAGLLSRS; ends not checked; also: biotin, position not given here)
T6 construct: also called fragment CGRP (1-19); truncated (1-19) CGRP
T6 peptide: ACDTATCVTHRLAGLLSRS

B1: hu224 Fab (Fab, V domains shown)
VH: QVQLVQSGAEVKKPGASVKVSCKASGYSFTGYTMNWVRQAPGQRLEWMGLINPYIGNTHYNQKFKDRVTFTVDRSSSTAYMELSSLRSEDTAVYYCARELDSGFDYWGQGTLVTVSS
VL: DVVMTQSPDSLAVSLGERATINCRSSQNIVHSNGDTYLEWYQQKPGQPPKLLIYKVSNRFSGVPDRFSGSGSGTDFTLTISSLQAEDVAVYYCYQGSHVPWTFGQGTKLEIK
notes: also called Fab monomer fragments derived from humanized antibody hu224
B2: C71 (antibody, V domains shown)
VH: EVQLQQSGPELVKPGASVKISCKTSGYTFIDFNMHWVKQSHGKSLEWIGYIYPYNGDVVYNQNFTNKATLTVDSSSSTAYMELRRVTSEDSAIYYCAREGLGGYWGQGTTLTVSS
VL: DIVLTQSPASLAVSLGQRATISCKASQNIDYDGYAYLNWYQQKPGQPPKVLIYSVFNLESGIPARFSGSGSGTDFTLNIHPVEEEDAATYYCQQSNEFPYTFGGGTKLEVK
notes: 1F5-HC + 1A2-LC2; chimeric, human constant regions
B3: C232 (antibody, V domains shown)
VH: EVQLQQSGPELVKPGASMKISCKASGYSFTGYTMNWVKQSHGNNLEWIGLINPYIGNTHYNQKFKDKATFTVDRSSSTAYMALLSLTSEDSAVYYCARELDSGFDYWGQGTTLTVSS
VL: B2 VL
notes: 3C1-HC + 1A2-LC2; chimeric, human constant regions
B4: C347 (antibody, V domains shown)
VH: EVQLQQSGPELVQPGASVKISCKASGYTFTDYNMHWVKQSHGESLEWIGYIYPYNGHTVYNQKFRNKATMTVDSSSSTAYMDLRSLTSEDSAVYYCAKEGLGGYWGQGTTLTVSS
VL: B2 VL
notes: 3H10-HC + 1A2-LC2; chimeric, human constant regions
B5: C255 (antibody, V domains shown)
VH: EVQLQQSGPELVKPGASVKISCKTSGYTFTDYNMHWVKQSHGKSLEWIGYISPYNGGTAYNQKFKFKSTLTVDTSSSTAYMELRSLTSEDSAVYYCAREGLGGYWGQGTTLTVSS
VL: B2 VL
notes: 3E5-HC + 1A2-LC2; chimeric, human constant regions
B6: C74 (antibody, V domains shown)
VH: B2 VH
VL: B2 VL with Y31F, L37M, Q42H, K49R, N96H, F98V, K107N, V110I
notes: 1F5-HC + 1F5-LC1; chimeric, human constant regions
B7: C253 (antibody, V domains shown)
VH: B3 VH
VL: B2 VL with A9D, D32G, A35S, L37M, N78T, F98A, V110I, K111R
notes: 3C1-HC + 3H10-LC2; chimeric, human constant regions
B8: C235 (antibody, V domains shown)
VH: B3 VH
VL: B2 VL with Y31F, L37M, Q42H, K49R, N96H, F98V, K107N, V110I
notes: 3C1-HC + 1F5-LC1; chimeric, human constant regions
B9: C246 (antibody, V domains shown)
VH: B3 VH
VL: B2 VL with A35T, V55I, F98V, V110I
notes: 3C1-HC + 3E5-LC; chimeric, human constant regions
B10: C245 (antibody, V domains shown)
VH: B3 VH
VL: DVLMTQTPLSLPVSLGDQASLSCRSSQNIVHSNGDTYLEWYLQKPGQSPKLLIYKVSNRFSGVPDRFSGSGSGTDFTLKISRVEAEDLGVYYCYQGSHVPWTFGGGTKLEIK
notes: 3C1-HC + 3C1-LC; chimeric, human constant regions; also called chimeric antibody C245

Key:
hCGRP(1-37) = molecular target: T1, hCGRP(1-37); test: BLI (Octet), biotin-peptide on SA probe, 45 nM Fab
Method: (§1) The kinetic parameters of C245 Fab (Fab monomer fragments derived from antibody C245) binding to six synthetic human CGRP alpha polypeptide fragments (polypeptide 1-13, polypeptide 1-19, polypeptide 1-37, polypeptide 8-19, polypeptide 8-26, and polypeptide 13-24) were determined on an Octet RBD 96e system. Human CGRP synthetic polypeptide fragments were immobilized on the surfaces of SA bioprobes (Sartorius, Cat. No. 18-5019) at the following concentrations: 46.5 nM for hCGRP (1-13), 8.5 nM for CGRP (1-19), 15.5 nM for hCGRP (1-37), 8.5 nM for hCGRP (8-19), 15.5 nM for hCGRP (8-26), and 46.5 nM for hCGRP (13-24). The immobilized synthetic human CGRP polypeptide fragments were bound to 45 nM of C245 Fab and the binding dissociation curves were fitted using analytical software.
(§2) The kinetic parameters of hu224 Fab (Fab monomer fragments derived from humanized antibody hu224) binding to four synthetic human CGRP alpha polypeptide fragments (polypeptide 1-13, polypeptide 1-19, polypeptide 1-37, and polypeptide 8-19) were determined on an Octet RBD 96e system. Human CGRP synthetic polypeptide fragments were immobilized on the surfaces of SA bioprobes (Sartorius, Cat. No. 18-5019) at the following concentrations: 8.5 nM for CGRP (1-19), 15.5 nM for hCGRP (1-37), 10 nM for hCGRP (8-19), and 15.5 nM for hCGRP (8-26). The immobilized synthetic human CGRP polypeptide fragments were bound to 45 nM of hu224 Fab and the binding dissociation curves were fitted using analytical software.

hCGRP(8-19) = molecular target: T2, hCGRP(8-19); test: BLI (Octet), biotin-peptide on SA probe, 45 nM Fab
Method: as §1, §2

hCGRP(8-26) = molecular target: T3, hCGRP(8-26); test: BLI (Octet), biotin-peptide on SA probe, 45 nM Fab
Method: as §1, §2

hCGRP(1-19) = molecular target: T4, hCGRP(1-19); test: BLI (Octet), biotin-peptide on SA probe, 45 nM Fab
Method: as §1, §2

Biotin-huCGRPaSA [1] = molecular target: T5, Biotin-huCGRPaSA; test: ELISA, transfection supernatant, biotin-CGRP on streptavidin
Method: Streptavidin was diluted to 0.5 μg/mL by using PBS (Hyclone) and added into a plate at 100 μL/well. The plate was incubated in a thermostat incubator at 37° C. for 90 min and then washed. 2% BSA was added to the plate at 200 μL/well, and the plate was incubated in the thermostat incubator at 37° C. for 90 min and washed. Biotin-huCGRPaSA was diluted to 2.0 μg/mL with 2% BSA and added into the plate at 100 μL/well, and the plate was incubated in the thermostat incubator at 37° C. for 60 min. The reference antibody (47-RM) was diluted to 2500 ng/ml with a diluent (2% BSA) and serially 4-fold diluted to 0.15 ng/mL, and the chimeric antibodies were diluted with a cell supernatant stock solution. All the chimeric antibody solutions and the reference antibody solution were added into plates at 80 μL/well, and the plates were incubated in a thermostat incubator at 37° C. for 60 min and washed. An HRP-conjugated mouse anti-human antibody IgG4 (manufacturer: Southern Biotech, Cat. No. 9200-05; Fc specificity) was diluted 5000-fold with 2% BSA and added into the plates at 100 μL/well, and the plates were incubated in the thermostat incubator at 37° C. for 60 min and washed. 0.1 mg/mL chromogenic reagent TMB was carefully added at 100 μL/well to avoid bubbles, and the system was incubated at 37° C. for 10 min away from light for chromogenic reaction. Finally, a 2 M hydrochloric acid solution was added at 100 μL/well to stop the reaction while avoiding bubbles, and the plates were read on a microplate reader within 10 min (the detection wavelength was 450 nm; the reference wavelength was 620 nm).

CGRP antigen [2] = test: cell-based or functional assay
Biotin-huCGRPaSA [3] = molecular target: T5, Biotin-huCGRPaSA; test: ELISA, purified antibody; relative to reference 47-RM-20190815
Method: Streptavidin was diluted to […] by using PBS (Hyclone) and added into a plate at 100 μL/well. The plate was incubated in a thermostat incubator at 37° C. for 90 min and then washed. 2% BSA was added to the plate at 200 μL/well, and the plate was incubated in the thermostat incubator at 37° C. for 90 min and washed. Biotin-huCGRPaSA was diluted to 2.0 μg/mL with 2% BSA and added into the plate at 100 μL/well, and the plate was incubated in the thermostat incubator at 37° C. for 60 min. The chimeric antibodies in Table 3 and reference antibody (47-RM-20190815) were diluted to 1000 ng/ml with a diluent (2% BSA) and serially 10-fold diluted to 1 ng/mL. All the chimeric antibody solutions and the reference antibody solution were added into plates at 100 μL/well, and the plates were incubated in a thermostat incubator at 37° C. for 60 min and washed. An HRP-conjugated mouse anti-human antibody IgG4 (manufacturer: Southern Biotech, Cat. No. 9200-05; Fc specificity) was diluted 5000-fold with 2% BSA and added into the plates at 100 μL/well, and the plates were incubated in the thermostat incubator at 37° C. for 60 min and washed. 0.1 mg/mL chromogenic reagent TMB was carefully added at 100 μL/well to avoid bubbles, and the system was incubated at 37° C. for 5 min away from light for chromogenic reaction. Finally, a 2 M hydrochloric acid solution was added at 100 μL/well to stop the reaction while avoiding bubbles, and the plates were read on a microplate reader within 10 min (the detection wavelength was 450 nm; the reference wavelength was 620 nm). EC₅₀ was fit by using a four-parameter logistic regression (4PL) model.

Biotin-1-19 polypeptide = molecular target: T6, Biotin-1-19 polypeptide; test: ELISA, transfection supernatant, biotin-CGRP(1-19) on streptavidin
Method: Streptavidin was diluted to 0.5 μg/mL by using PBS (Hyclone) and added into a plate at 100 μL/well. The plate was incubated in a thermostat incubator at 37° C. for 90 min and then washed. 2% BSA was added to the plate at 200 μL/well, and the plate was incubated in the thermostat incubator at 37° C. for 90 min and washed. Biotin-1-19 polypeptide was diluted to 2.0 μg/mL with 2% BSA and added into the plate at 100 μL/well, and the plate was incubated in the thermostat incubator at 37° C. for 60 min. The reference antibody (Lily) was diluted to 2500 ng/ml with a diluent (2% BSA) and then serially 4-fold diluted to 0.15 ng/ml. For chimeric antibodies, the stock solution was diluted. All the chimeric antibody solutions and the reference antibody solution were added into plates at 80 μL/well, and the plates were incubated in a thermostat incubator at 37° C. for 60 min and washed. An HRP-conjugated mouse anti-human antibody IgG4 (manufacturer: Southern Biotech, Cat. No. 9200-05; Fc specificity) was diluted 5000-fold with 2% BSA and added into the plates at 100 µL/well, and the plates were incubated in the thermostat incubator at 37° C. for 60 min and washed. 0.1 mg/mL chromogenic reagent TMB was carefully added at 100 μL/well to avoid bubbles, and the system was incubated at 37° C. for 10 min away from light for chromogenic reaction. Finally, a 2 M hydrochloric acid solution was added at 100 μL/well to stop the reaction while avoiding bubbles, and the plates were read on a microplate reader within 10 min (the detection wavelength was 450 nm; the reference wavelength was 620 nm).

CGRP antigen [4] = test: cell-based or functional assay; remark: listed apart in the source
CGRP antigen [5] = test: cell-based or functional assay; remark: listed apart in the source
CGRP antigen [6] = test: cell-based or functional assay; remark: listed apart in the source

Binder	OD value (Biotin-huCGRPaSA [1])	Relative activity (%) (Biotin-huCGRPaSA [3])	OD value (Biotin-1-19 polypeptide)	also measured
B1				Kd (hCGRP(1-37)): 0.288 nM; koff (hCGRP(1-37)): 7.97e-05 s⁻¹; kon (hCGRP(1-37)): 277000 M⁻¹ s⁻¹; Kd (hCGRP(8-19)): 0.445 nM; koff (hCGRP(8-19)): 0.000151 s⁻¹; kon (hCGRP(8-19)): 341000 M⁻¹ s⁻¹; Kd (hCGRP(8-26)): 1.18 nM; koff (hCGRP(8-26)): 0.000374 s⁻¹; kon (hCGRP(8-26)): 316000 M⁻¹ s⁻¹; Kd (hCGRP(1-19)): 0.0823 nM; koff (hCGRP(1-19)): 2.62e-05 s⁻¹; kon (hCGRP(1-19)): 318000 M⁻¹ s⁻¹
B2	3.06 OD	47.3%		Relative binding activity (%) vs Ref(Teva) (CGRP antigen [2]): 106%
B3	3.28 OD	3.4%	3.15 OD	
B4	3.01 OD	91.4%		Relative binding activity (%) vs Ref(Teva) (CGRP antigen [4]): 87.6%
B5	3.11 OD	108%		Relative binding activity (%) vs Ref(Teva) (CGRP antigen [4]): 74.9%
B6	3.06 OD	39.5%		Relative binding activity (%) vs Ref(Teva) (CGRP antigen [2]): 76%
B7	2.46 OD		2.94 OD	
B8			2.84 OD	
B9			0.91 OD	
B10	3.31 OD	240%	2.51 OD	Relative binding activity (%) vs Ref(Teva) (CGRP antigen [5]): 116%; IC50 of reference C245 (CGRP antigen [6]): 0.018 µg/mL and 0.0236 µg/mL and 0.0259 µg/mL and 0.0281 µg/mL
